This note sets out measurements from the DeepSol protein solubility set.

This series in a line: soluble on expression in E. coli; label from the status in PepcDB or PDB records.
With “MGSDKIHHHHHHMLRGKDATLAAIINIILDEEPETQDDIADRLGVSRRYVAKLLKPLVDGGAIMHPYVVNLEKLKEFEEYIETDRYFKEIYETFDRMGTNVIQNIDKVFDSLKTHDLDIAKSIILEDYALNRMEDEVNLVIKMKASKYMDMNSLMQVSNIAANIERCGDYLSNIAEEVVNGLLVDPAIKKEVFEIKEIISKMFAHAMNMVKSKTIETEIYELEGNLHKKLDTMMEKIAEHPDENLKDINQFIQFGMFLKDVERFGDRCLKIFELGREFHHNIPKNVTTPEYVRNLK”, the “soluble on expression in E. coli” value is recorded as “not soluble”.

For PGWEIIHENGRPLYYNAEQKTKLHYPP, the “soluble on expression in E. coli” value is “soluble”.

Regarding “MGHHHHHHSHVLLVTANVGSLFDDPENLQKNWLREFYQVVHTHKPHFMALHCQEFGGKNYEASMSHVDKFVKELLSSDAMKEYNRARVYLDENYKSQEHFTALGSFYFLHESLKNIYQFDFKAKKYRKVAGKEIYSDTLESTPMLEKEKFPQDYFPECKWSRKGFIRTRWCIADCAFDLVNIHLFHDASNLVAWETSPSVYSGIRHKALGYVLDRIIDQRFEKVSYFVFGDFNFRLDSKSVVETLCTKATMQTVRAADTNEVVKLIFRESDNDRKVMLQLEKKLFDYFNQEVFRDNNGTALLEFDKELSVFKDRLYELDISFPPSYPYSEDARQGEQYMNTRCPAWCDRILMSPSAKELVLRSESEEKVVTYDHIGPNVCMGDHKPVFLAFRIMPG”, the “soluble on expression in E. coli” value is recorded as “not soluble”.

“MHYDAIVVGGGMVGAAAALGLAQRGFQVAVIEQEMPTPFDATSPPDLRISAIGYASVALLKELDAWPRVQQMRSAPYRRLETWEWANARVVFDAADIHLPELGFMVENRVLQLALWESLQEEERCRCYCPATPQGLQRTDDGWCLQLADGQKLTASLVIGADGANSQVRQWAGIGISGWQYRQSCMLIGVETSQPQQDVTWQQFTPSGPRAFLPLFDQWGSLVWYDSPQRIRQLQAMPLAQLDKEIAAAFPERLGTVKVISAGSFPLVRRHAQTYIKPGLVLLGDAAHTINPLAGQGVNLGYRDVEALLDVLINARNAGEQWASERVLRRYQCRRMPDNLMMQSGMDLFYSAFSNALPPLSFARNMALMVAQRAGVLKQRALKYAIGVLEHHHHHH”: the “soluble on expression in E. coli” value is reported as “soluble”.

Turning to “MGSDKIHHHHHHMTETWNFINTGSKDPYYNMAMDEALLNFVSRGEIDPVIRFYTWNPATLSIGYFQRLQKEIDIDKVKEKGFGLVRRQTGGRGVLHDKELTYSVIVPESHPNMPSTVTEAYRVISQGLLEGFKNLGFNTYFAVPKTPEERQKLKQPRSSVCFDAPSWYELVVEGRKIAGSAQTRQKGVILQHGSILQDIDIDELFDMFIYKNERLKLKMKEAFVEKAVAINDISDKHITISQMEEAFEKGFKKGLNIELKPLELTEAQLAEVEELTEKYRSDEWMFRK”, the “soluble on expression in E. coli” value was “not soluble”.

Take “MPEVIFNGPAGRLEGRYQPSKEKSAPIAIILHPHPQFGGTMNNQIVYQLFYLFQKRGFTTLRFNFRSIGRSQGEFDHGAGELSDAASALDWVQSLHPDSKSCWVAGYSFGAWIGMQLLMRRPEIEGFMSIAPQPNTYDFSFLAPCPSSGLIINGDADKVAPEKDVNGLVEKLKTQKGILITHRTLPGANHFFNGKVDELMGECEDYLDRRLNGELVPEPAAKRIR”: the “soluble on expression in E. coli” value is “soluble”.

For the sequence “MAEKVAVIVGPTAVGKTKLGIALAKKLGGEVISGDSMQIYKGMDIGTAKVKPDEMEGIPHHLLDIKEPCEPFSVVEFQRLCRALITEISARGRLPIIVGGTGLYIQAALYDYQFSAAPSDEAYRRALKQLAAEQGAEALHRRLEAVDPISAARIHPHNIRRVIRALEVYHCTGKPFSEWQQTEKRLLYEAAIVGLTAEREALYRRINERVDEMIAAGLIEEARALYDRGLRDCQAVQAIGYKELYDYFDGRVSLDEAIEQLKQNSRRYAKRQLTWFRNQMPVKWFDMTDAGQFAAKVQEISRYVAGKLQLEANI”, the “soluble on expression in E. coli” value was “not soluble”.

On to “SPRGLELLIAQTILQGFDAQYGRFLEVTSGAQQRFEQADWHAVQQAMKNRIHLYDHHVGLVVEQLRCITNGQSTDAEFLLRVKEHYTRLLPDYPRFEIAESFFNSVYCRLFDHRSLTPERLFIFSSQPERRFRTIPRPLAKDFHPDHGWESLLMRVISDLPLRLHWQNKSRDIHYIIRHLTETLGPENLSKSHLQVANELFYRNKAAWLVGKLITPSGTLPFLLPIHQTDDGELFIDTCLTTTAEASIVFGFARSYFMVYAPLPAALVEWLREILPGKTTAELYMAIGCQKHAKTESYREYLVYLQGCNEQFIEAPGIRGMVMLVFTLPGFDRVFKVIKDKFAPQKEMSAAHVRACYQLVKEHDRVGRMADTQEFENFVLEKRHISPALMELLLQEAAEKITDLGEQIVIRHLYIERRMVPLNIWLEQVEGQQLRDAIEEYGNAIRQLAAANIFPGDMLFKNFGVTRHGRVVFYDYDEICYMTEVNFRDIPPPRYPEDELASEPWYSVSPGDVFPEEFRHWLCADPRIGPLFEEMHADLFRADYWRALQNRIREGHVEDVYAYRRRQRFSVRYGEMLF”, for which the “soluble on expression in E. coli” value was “soluble”.

Turning to “MNELINGNAIKMTSIEIAELVESRHSNVKVSIDRLVKRGVIKPPALQHTNIINDLGVITGKRDFYVFEGEKGKRDSIIVVAQLSPEFTARLVDRWRELEEAAVNIPKTLPEALRLAADLAEQKMQLENQLAIAAPKVEFADRVGEASGILIGNFAKVVGIGPNKLFAWMRDHKILIASGARRNVPMQEYMERGYFTVKETAVNTNHGIQISFTTKITGRGQQWLTRKLLDNGMLKVTGEAA”, the “soluble on expression in E. coli” value is recorded as “not soluble”.

For “GPGSMIHPMAVDRLLPSQEAAELIELTREIADKVLDPIVDRHEKDETYPEGVFEQLGAAGLLSLPQPEEWGGGGQPYEVYLQVLEEIAARWASVAVAVSVHSLSSHPLLVFGTEEQKKRWLPGMLSGEQIGAYSLSEPQAGSDAAALRCAATPTDGGYVINGSKSWITHGGKADFYTLFARTGEGSRGVSCFLVPADQPGLSFGKPEEKMGLHAVPTTSAFYDNARIDADRRIGEEGQGLQIAFSALDSGRLGIAAVATGLAQAALDEAVAYANERTAFGRKIIDHQGLGFLLADMAAAVATARATYLDAARRRDQGRPYSQQASIAKLTATDAAMKVTTDAVQVFGGVGYTRDYRVERYMREAKIMQIFEGTNQIQRLVIARGLTR”, the “soluble on expression in E. coli” value is recorded as “soluble”.

Regarding “MGSDKIHHHHHHMIKVLHLFTTLDSGGVESFLFNYYSHIDRKKIQFDFIVPGKEQGFLEDKMKELGAKVYHVPLLRKKPLHQFLSLARIIKKGDYDIVHCHGYKSAIGLILSKIIGCKIRIIHSHMAYVTENSFQKVLRKLVTILVKILATHWFACGEDSAKWLYGEKAYKDGKIEIIFNAIDLKKYQFLSDVREKCRRELDVSNKFVLGNIARLSDQKNQSYLFNVLKELILIKPNVILLLVGNGEDEQKLKQKALELNLTPYVLFLGRRTDISDLLSAMDVFLLPSKYEGLPVSLVEAQASGLQILSSDTVTQEVDVTKNISYLPINEESVLLWKDKVLSLTSEECNRFEINNSMTDGLYDICYQASKLLNRYQEMCVIKEI”, the “soluble on expression in E. coli” value was “not soluble”.

Consider “MSEMQMDCALDLMRRLPPQQIEKNLIDLIDLAPDLCEDLLSSVDQPLKIAKDKEHGKDYLLCDYNRDGDSYRSPWSNSYYPPLEDGQMPSERLRKLEIEANYAFDQYREMYYEGGVSSVYLWDLDHGFAAVILIKKAGDGSKMIRGCWDSIHVVEVQEKTTGRTAHYKLTSTAMLWLQTNKQGSGTMNLGGSLTRQQEQDANVSESSPHIANIGKMVEEMENKIRNTLNEIYFGKTKDIVNGLRSTQSLADQRQQAAMKQDLAAAILRRNVKPESN”, for which the “soluble on expression in E. coli” value is “not soluble”.

Take “MNKTYDFKSITENFNLEGELKTSDSHVCGHINDTFIINCEGENGEEIKYVLQRVNSDIFKNPEQLMENIENVTSHIKNKIIEENGDPLRETLNIVKTKEGKNFYKCKEGNYWRIFNFIHDASTYQIVEKPEHLYTAGKALGKFQKQLSDFNVDMLYDTIPDFHNTEKRFEAFMEAVREDKKGRAKDVKEEIDFVINRAEDTKVLVNMIKENKLPLRVTHNDTKFNNIMIDDETGEGIAVIDLDTVMPGLSLYDFGDSIRSGATTALEDEVDLSKVNFDLNLYEHFTKGFLESAGDAFTKEEIEYLPFAAKLMTFECGMRFLMDYLNGDVYFKIHRENHNLDRARNQFKLVSDMEKEMDNMKKIVYSYILEHHHHHH”: the “soluble on expression in E. coli” value was “not soluble”.

For “MYNDPRSHGLWEKTAPQPPVTPALQGDAVADVVVVGGGFTGQSAALHLAEGGLDVILLEAKEIGFGGAGRNVGLINGGMWVMPKELPDVLGETYGERLLDLLGDAPVLVRELVEKHGIPCEIEKNGTLHCAVGEKGLAEIRERCEQWSARGAPVRVLDADETASYIGSTAYSGALLDSRAGTIQPLAYVRGLAGAALKAGVRLHTASPVNETGRNGAKWVVKTPEGSVTAKWIVVATEAYSTGPWQIIREEQVYLPYFNFATRPLSDNLQKSILPGRQGCWDTKEILSSFRMDKAGRLVFGSVGALRGTGTAIHRAWAKRSLKRLFPQLGDTEFECEWYGQIGMTDNAVPRFHKFAENVIGFSGYNGRGIAPGTAFGKVIAQHILGEIAEADLPLPVTEPKAQAFRAVKEAYYEAGAQIAHFAGERFLEHHHHHH”, the “soluble on expression in E. coli” value was “not soluble”.

Take “MSLSVFDLFKIGIGPSSSHTVGPMRAAARFAEGLRREGLLEATASIKVELYGSLGATGKGHGSDKAVLLGLEGEQPDTVDTAAIPARLDAIRSSGELRLLGERPIRFVEKEHLALIRKPLAYHPNGMIFRAFDAAGLQVRSREYYSVGGGFVVDDEAAGLDRIVEDRTPLAFPFKTARQLLDHCAREGLSISQLMAENEKAWRPAEETRTGLLRIWQVMQDCVEAGCRNEGIMPGGLKVRRRAAALHRQLCQRPEAGLRDALSVLDWVNLYALAVNEENASGGRVVTAPTNGAAGIIPAVLHYYARFIPGADDDGVVRFLLTAAAIGILYKENASISGAEVGCQGEVGVACSMAAGALCEVLGGSVQQVENAAEIGMEHNLGLTCDPVGGLVQVPCIERNAMASVKAINAARMALRGDGQHFISLDKVIRTMRQTGADMKSKYKETARGGLAVNIIEC”: the “soluble on expression in E. coli” value is “not soluble”.

For the sequence “RPLKRDKPAARTLKDNWLRTEREERLWQALRVWRMKQAEAEGIPAYMIFGDKTLRDLVEKMPQDLNGLHDIYGLGEAKIDRFGHGILEVCRNAAGFSRDAVIRPQTEREQQLRQKLEAWRYEQARAENCALHAVLSDESLADMLADTPETETDLEGVYGLGSVRAAKYGRDILAVCRPFSDGIDETAKRKRRLMRALIQWCGETAKHEQSEPYRILSKAALRAIAAKQPEGLAELAAVYGVGEEKAARYGAAVLAVLERNAV”, the “soluble on expression in E. coli” value was “not soluble”.

In the case of “MVLYVPTYREDKADNRAIDKAYFEKCLPGYTLINKLHPSIEDSDIDDVSSIDTSTLMLMSDIIISDYSSLPIEASLLDIPTIFYVYDEGTYDKVRGLNQFYKAIPDSYKVYTEEDLIMTIQEKEHLLSPLFKDWHKYNTDKSLHQLTEYIDKMVTK”, the “soluble on expression in E. coli” value is recorded as “not soluble”.

On to “MGHHHHHHSHMLFIDNQNINDPRINLAIEEYCVKHLDPEQQYLLFYVNQPSIIIGKNQNTIEEINTKYVEENGIIVVRRLSGGGAVYHDLGNLNFSFITKDDGDSFHNFKKFTEPVIQALHQLGVEAELSGRNDIVVDGRKISGNAQFATKGRIFSHGTLMFDSAIDHVVSALKVKKDKIESKGIKSIRSRVANISEFLDDKMTTEEFRSHLLRHIFNTNDVGNVPEYKLTEKDWETIHQISKERYQNWDWNYGRSPKFNLNHSKRYPVGSIDLHLEVKKGKIEDCKIFGDFFGVGDVSEIENLLVGKQYERSVIADVLEGVNLKHYFGNITKEDFLDLIY”, for which the “soluble on expression in E. coli” value was “not soluble”.
